Values quoted from earlier work in publication PMC11401910, “Dual client binding sites in the ATP-independent chaperone SurA” (Nature Communications, 2024).

Target: OmpX (Escherichia coli) (UniProt P0A917)
Settings: cited from earlier work

Sequence of OmpX (Escherichia coli) (P0A917 24-171): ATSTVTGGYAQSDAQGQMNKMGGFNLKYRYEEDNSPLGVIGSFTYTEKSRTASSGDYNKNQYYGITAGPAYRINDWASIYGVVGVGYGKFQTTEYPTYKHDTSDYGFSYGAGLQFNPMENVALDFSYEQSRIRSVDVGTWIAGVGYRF
Sequence of SurA (P0ABZ6 21-428): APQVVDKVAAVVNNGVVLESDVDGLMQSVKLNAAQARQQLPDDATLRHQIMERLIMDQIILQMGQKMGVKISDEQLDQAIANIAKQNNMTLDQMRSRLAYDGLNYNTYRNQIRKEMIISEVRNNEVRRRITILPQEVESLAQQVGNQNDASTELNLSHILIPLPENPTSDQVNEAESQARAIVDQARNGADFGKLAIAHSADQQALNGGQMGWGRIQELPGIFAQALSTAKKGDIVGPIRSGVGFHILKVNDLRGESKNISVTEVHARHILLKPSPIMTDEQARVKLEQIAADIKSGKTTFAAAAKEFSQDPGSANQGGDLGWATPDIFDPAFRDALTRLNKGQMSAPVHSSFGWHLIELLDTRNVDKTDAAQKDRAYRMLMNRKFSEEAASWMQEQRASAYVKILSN

Which Kd does the source give for SurA (from UniProt P0ABZ6) here?
The Kd was 1000 nM.
